These results are taken from PMC11352552.

The target of this test is T1, recombinant human PSGL-1 Fc fusion protein (human).
T1 sequence (Q14242 whole entry, looked up): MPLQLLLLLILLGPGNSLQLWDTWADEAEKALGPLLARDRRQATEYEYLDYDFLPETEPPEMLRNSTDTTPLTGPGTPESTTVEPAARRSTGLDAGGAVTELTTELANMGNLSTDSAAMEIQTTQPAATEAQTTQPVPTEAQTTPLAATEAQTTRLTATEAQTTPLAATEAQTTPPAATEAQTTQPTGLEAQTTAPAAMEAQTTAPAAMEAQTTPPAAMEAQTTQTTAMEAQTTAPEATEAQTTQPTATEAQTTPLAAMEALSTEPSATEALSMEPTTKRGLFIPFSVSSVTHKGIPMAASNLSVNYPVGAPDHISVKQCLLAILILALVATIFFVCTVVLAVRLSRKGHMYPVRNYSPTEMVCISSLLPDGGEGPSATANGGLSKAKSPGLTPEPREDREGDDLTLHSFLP
The experiment in a line: ELISA; EC50 of biotinylated P- and L-selectin binding to PSGL-1; the titration itself is not described, the values are given in the competition protocol.

What is called EC50 is the concentration needed to bring the measured effect to its halfway point. With “biotinylated P-selectin (from UniProt P16109 42-771) (natural protein)”, the EC50 was 1 nM.

B1: biotinylated L-selectin (natural protein)
chain: WTYHYSEKPMNWQRARRFCRDNYTDLVAIQNKAEIEYLEKTLPFSRSYYWIGIRKIGGIWTWVGTNKSLTEEAENWGDGEPNNKKNKEDCVEIYIKRNKDAGKWNDDACHKLKAALCYTASCQPWSCSGHGECVEIINNYTCNCDVGYYGPQCQFVIQCEPLEAPELGTMDCTHPLGNFSFSSQCAFSCSEGTNLTGIEETTCGPFGNWSSPEPTCQVIQCEPLSAPDLGIMNCSHPLASFSFTSACTFICSEGTELIGKKKTICESSGIWSNPSPICQKLDKSFSMIKEGDYN
modifications: biotinylated
For the molecule B1, the concentration for a half-maximal effect (EC50) worked out at 40 nM.
